Results reported in publication PMC12796488, “Distinct structural features of Pseudomonas aeruginosa ATP synthase revealed by cryo-electron microscopy” (Nature Communications, 2025).

Target: the molecule itself
Assay: cryo-EM structure; purified F1Fo complex in digitonin; 10 mM MgADP and 230 uM compound #5 added, 1 h on ice before freezing; maps at 2.0-3.0 Å

B1: P. aeruginosa ATP synthase subunit c (natural protein, Pseudomonas aeruginosa, UniProt Q9HT15 1-85, looked up)
chain: METVVGLTAIAVALLIGLGALGTAIGFGLLGGKFLEGAARQPEMVPMLQVKMFIVAGLLDAVTMIGVGIALFFTFANPFVGQIAG
notes: ATP synthase subunit c of Pseudomonas aeruginosa, expressed from the whole operon (atpIBEFHAGDC) plasmid pASH20; A ring of ten copies in the cryo-EM maps; also called c subunit; c-ring; source: E. coli DK8, purified as part of the whole F1Fo complex (digitonin extraction, Talon resin, Superose 6 SEC); copies: 10
  stoichiometry N: 10
